Test results as given in PMC9175631 (Journal of Virology, 2022).

B1: anti-ZIKV MAb 11-3 (antibody, V domains shown)
VH: QEQLVESGGGLVQPEGSLTITCTGSGFSFSSRFYMCWVRQAPGKGLEWIACIYGGSSGSTYYASWAKGRFTISKTSSTTVTLQISSLTAADTATYFCARGGSTAAAGFNLWGPGTLLTVSS
VL: DVVMTQTPASVSATVGGTVTIKCQASEDIYNLLAWYQQKPGQPPKLLIYYASTLASGVPSRFKGSGSGTEFTLTISDLECADAATYYCQCNDYGGTYVPNAFGGGTEVVVK
notes: recombinant rabbit IgG
B2: anti-ZIKV MAb 242-3 (antibody, V domains shown)
VH: QAQLEESGGDLVKPEGSLTLTCTASGFSFTDRHYMCWIRQAPGKGLEWIACVYPGSSGSTYYASWARGRFTISKTSSTTVTLRMTSLTAADTATYFCARSSYPDSSGYSYGMDLWGPGTLVTVSS
VL: DIVMTQTPASVEAAVGGTVTIKCQASQNINSNLAWYQQKPGQRPKFLMYLTSKLASGVPSRFRGSGSGTQFTLTISDLECADAATYYCQTYYDISNYGYAFGGGTEVVVK
notes: recombinant rabbit IgG; 99% amino acid identity with 270-12
B3: anti-ZIKV MAb 270-12 (antibody, V domains shown)
VH: QAQLEESGGDLVKPEGSLTLTCTASGFSFTDRHYMCWVRQAPGKGLEWIACVYPGSSGSTYYASWARGRFTISKTSSTTVTLRMTSLTAADTATYFCARSSYPDSSGYSYGMDLWGPGTLVTVSS
VL: DIVMTQTPASVEAAVGGTVTIKCQASQDINSNLAWYQQKPGQRPKFLMYLTSKLASGVPSRFRGSGSGTQFTLTISDLECADAATYYCQTYYDISNYGYAFGGGTEVVVK
notes: source: 293-6E cells, cotransfected, purified (MabSelect SuRe protein A)
B4: anti-ZIKV MAb 306-2 (antibody, V domains shown)
VH: QSLEESGGDLVKPGASLTLTCTASGFDFSDRYYMCWVRQAPGKGLEWIGCIYVGSGDTYYASWAKGRFTISRTSSTTVTLQMTRLTAADTATYFCARHPGTYFTLWGPGTLVTVSS
VL: DVVMTQTPSSVSAAVGGTVTINCQASQNIVNNLAWYQQRPGQPPKLLIYDTSTLASGVPSRFKGSGSGTEFTLTISDLECADAATYYCQTYYYYNKIINGFGGGTEVVVK
B5: framework region (FWR) amino acid reverted anti-ZIKV MAb 306-2 (antibody, V domains shown)
VH: QSLEESGGDLVKPGASLTLTCTASGFDFSDRYYMCWVRQAPGKGLEWIACIYVGSGDTYYASWAKGRFTISKTSSTTVTLQMTSLTAADTATYFCARHPGTYFTLWGPGTLVTVSS
VL: DVVMTQTPSPVSAAVGGTVTINCQASQNIVNNLSWYQQKPGQPPKLLIYDTSNLASGVPSRFKGSRSGTEFTLTISDLECADAATYYCQTYYYYNKIINGFGGGTEVVVK
notes: rabbit IgG; 3 FWRH and 5 FWRL residues reverted to the germ line; also called allele reverted MAb 306-2; MAb 306-2 with amino acid reverted to allele
B6: framework region (FWR) amino acid reverted anti-ZIKV MAb 102-1 (antibody, V domains shown)
VH: QSLEESGGDLVKPGASLTLTCTASGFSFNSNYWMCWVRQAPGKGLEWIACVFGGIHVTYYASWAKGRFTISKTSSTTVTLQMTSLTAADTATYFCIISTGGSHRFNLWGPGTLVTVSS
VL: DVVMTQTPSPVSAAVGGTVTINCQASESIYTYLSWYQQKPGQPPKLLIYRASTLESGVPSRFKGSGSGTQFTLTISDLECADAATYYCQATDVGGSGRGAFGGGTEVVVE
notes: rabbit IgG; 9 FWRH and 9 FWRL residues reverted to the germ line
B7: anti-ZIKV MAb 78-2 (antibody, V domains shown)
VH: QQQLVESGGGLVKPGASLTLNCKASGLDFSTNSYMCWVRQAPGKGLEWIACIYVGDSSEIYYASWAKGRFTISKTSSTTVTLQMTSLTAADTATYFCARDLPSFTAPYAGYLRLWGPGTLVTVSS
VL: QPVLTQPPSLSASLGTTARLTCTLRTGYNVGDYPLLWLQRVPGRPPRYLLTYHTEEFKHQGSGVHSRFSGSKDASENAGVLSISGLQPEDEANYYCYTVHATESSLHYVFGGGTQLTVT
B8: anti-ZIKV MAb 289-3 (antibody, V domains shown)
VH: QEELEESGGDLVKPGASLTLTCKASGFSFSSGAYICWVRQAPGKGPEWIACIYTGDGRTYYANWAKRRFTISSSSSTTVALEMPSLTDADTATYFCARAIAVGAGYGVGNYFTLWGPGTLVTVSS
VL: DIVMTQTPSSVSAAVGGTVTINCHASENIYGYLSWYQQKPGQPPKLLIYKASTLASGVPSRFKGSGAGTQFTLTITALECADAATYYCQSYYTSSSNADGSENAFGGGTEVVVE

Legend:
[1] = molecular target: T1, ZIKV virus-like particles (Suriname Z1106033) (Zika virus, Suriname Z1106033, UniProt A0A0U4DG08, strain); assay: BLI; Octet HTX; MAb 0.1 to 0.3 μg/mL amine-coupled to AR2G biosensor; ZIKV-VLP 0.1 to 1.0 μg/mL or ZIKV E protein 0.2 to 2 μg/mL in 1x kinetic buffer; association 900 s, dissociation 1,200 s; Langmuir 1:1 model; average of two runs; conditions: both partners purified
T1 construct: also called ZIKV-VLP; VLP; source: bought: The Native Antigen Company

[2] = molecular target: T2, ZIKV E protein (Suriname Z1106033) (Zika virus, Suriname Z1106033, UniProt A0A0U4DG08, strain); assay: as above; conditions: both partners purified
T2 construct: also called soluble ZIKV E protein

[3] = molecular target: T2, ZIKV E protein (Suriname Z1106033); assay: cell-based or functional assay
[4] = molecular target: ZIKV prM/E (ZIKV SPH2015), E G302A (Zika virus (ZIKV SPH2015)); assay: flow cytometry on cells
[5] = molecular target: ZIKV prM/E (ZIKV SPH2015), E G337A (Zika virus (ZIKV SPH2015)); assay: flow cytometry on cells
[6] = molecular target: ZIKV prM/E (ZIKV SPH2015), prM D57A (Zika virus (ZIKV SPH2015)); assay: flow cytometry on cells
[7] = molecular target: ZIKV prM/E (ZIKV SPH2015), prM G59A (Zika virus (ZIKV SPH2015)); assay: flow cytometry on cells
[8] = molecular target: ZIKV prM/E (ZIKV SPH2015), prM V60A (Zika virus (ZIKV SPH2015)); assay: flow cytometry on cells
[9] = molecular target: ZIKV prM/E (ZIKV SPH2015), E I317A (Zika virus (ZIKV SPH2015)); assay: flow cytometry on cells
[10] = molecular target: ZIKV prM/E (ZIKV SPH2015), prM E58A (Zika virus (ZIKV SPH2015)); assay: flow cytometry on cells
[11] = molecular target: ZIKV prM/E (ZIKV SPH2015), E H398A (Zika virus (ZIKV SPH2015)); assay: flow cytometry on cells
[12] = molecular target: ZIKV prM/E (ZIKV SPH2015), E T369A (Zika virus (ZIKV SPH2015)); assay: flow cytometry on cells
[13] = molecular target: ZIKV prM/E (ZIKV SPH2015), E H399A (Zika virus (ZIKV SPH2015)); assay: flow cytometry on cells
[14] = molecular target: ZIKV prM/E (ZIKV SPH2015), E K301A (Zika virus (ZIKV SPH2015)); assay: flow cytometry on cells
[15] = molecular target: ZIKV prM/E (ZIKV SPH2015), E G100A (Zika virus (ZIKV SPH2015)); assay: flow cytometry on cells
[16] = molecular target: ZIKV prM/E (ZIKV SPH2015), E L107A (Zika virus (ZIKV SPH2015)); assay: flow cytometry on cells
[17] = molecular target: ZIKV prM/E (ZIKV SPH2015), E T309A (Zika virus (ZIKV SPH2015)); assay: flow cytometry on cells
[18] = molecular target: ZIKV prM/E (ZIKV SPH2015), E S368A (Zika virus (ZIKV SPH2015)); assay: flow cytometry on cells
[19] = molecular target: ZIKV prM/E (ZIKV SPH2015), E E162A (Zika virus (ZIKV SPH2015)); assay: flow cytometry on cells
[20] = molecular target: ZIKV prM/E (ZIKV SPH2015), E G182A (Zika virus (ZIKV SPH2015)); assay: flow cytometry on cells
[21] = molecular target: ZIKV prM/E (ZIKV SPH2015), E T335A (Zika virus (ZIKV SPH2015)); assay: flow cytometry on cells
[22] = molecular target: ZIKV prM/E (ZIKV SPH2015), E T397A (Zika virus (ZIKV SPH2015)); assay: flow cytometry on cells
[23] = molecular target: T3, wild-type ZIKV prM/E (ZIKV SPH2015) (Zika virus, SPH2015, UniProt A0A0U3FSM8, strain); assay: flow cytometry on cells; conditions: one partner purified
T3 construct: also called WT prM/E; wild-type prM/E; source: HEK-293T, transfected, cells fixed and permeabilised

[24] = molecular target: T1, ZIKV virus-like particles (Suriname …); assay: Luminex bead assay; VLP conjugated to MagPlex beads (EDC/NHS); 10,000 beads/mL with 10 μg/mL to 0.0002 ng/mL MAb, 90 min, room temperature, 1% BSA in D-PBS; detected with phycoerythrin-labeled anti-rabbit IgG; conditions: both partners purified
[25] = molecular target: T2, ZIKV E protein (Suriname Z1106033); assay: BLI; Octet HTX; 2 μg/mL MAb captured on protein G biosensor in 0.1% BSA-PBST; 3 μg/mL ZIKV E protein associated 600 s, dissociated 900 s; conditions: both partners purified
[26] = molecular target: ZIKV prM/E (ZIKV SPH2015), E E370A (Zika virus (ZIKV SPH2015)); assay: flow cytometry on cells

Binder	Kd [1] [nM]	koff [1] [s⁻¹]	kon [1] [M⁻¹ s⁻¹]	Kd [2] [nM]	koff [2] [s⁻¹]	kon [2] [M⁻¹ s⁻¹]	other [3] [ng/mL]	binding result [23]	further results
B1	0.57	7.13e-05	125000	1.53	0.000137	89800			
B2	0.24	4.93e-05	202000	1.22	8.16e-05	67100	42.8	binds	antibody binding reactivity (% WT) [4]: 68.3 % WT; antibody binding reactivity (% WT) [5]: 48.3 % WT; antibody binding reactivity (% WT) [6]: 91.9 % WT; antibody binding reactivity (% WT) [7]: 94.9 % WT; antibody binding reactivity (% WT) [8]: 97.2 % WT; antibody binding reactivity (% WT) [9]: 112 % WT; antibody binding reactivity (% WT) [10]: 96.8 % WT; antibody binding reactivity (% WT) [11]: 77.2 % WT; antibody binding reactivity (% WT) [12]: 34.5 % WT; antibody binding reactivity (% WT) [13]: 127 % WT; antibody binding reactivity (% WT) [14]: 78.7 % WT; antibody binding reactivity (% WT) [15]: 70.3 % WT; antibody binding reactivity (% WT) [16]: 122 % WT; antibody binding reactivity (% WT) [17]: 104 % WT; antibody binding reactivity (% WT) [18]: 89.1 % WT; antibody binding reactivity (% WT) [19]: 79.6 % WT; antibody binding reactivity (% WT) [20]: 85.6 % WT; antibody binding reactivity (% WT) [21]: 36.2 % WT; antibody binding reactivity (% WT) [22]: 111 % WT
B3	0.31	4.27e-05	140000	1.04	9.8e-05	94500		binds	MNT titer, IC50 (microneutralization of ZIKV PRVABC59 on Vero cells) [3]: 0.0372 µg/mL
B4	0.4	6.34e-05	160000	0.17	2.04e-05	117000	10500	binds	
B5									binding result [24]: binds; binding result [25]: binds
B6									binding result [24]: binds; binding result [25]: binds
B7	0.19	4.28e-05	221000	0.1	1.94e-05	192000		binds	antibody binding reactivity (% WT) [4]: 69.2 % WT; antibody binding reactivity (% WT) [5]: 59.7 % WT; antibody binding reactivity (% WT) [6]: 123 % WT; antibody binding reactivity (% WT) [7]: 117 % WT; antibody binding reactivity (% WT) [8]: 113 % WT; antibody binding reactivity (% WT) [9]: 61.2 % WT; antibody binding reactivity (% WT) [10]: 130 % WT; antibody binding reactivity (% WT) [11]: 92.9 % WT; antibody binding reactivity (% WT) [12]: 113 % WT; antibody binding reactivity (% WT) [13]: 97.2 % WT; antibody binding reactivity (% WT) [14]: 82.5 % WT; antibody binding reactivity (% WT) [26]: 92.7 % WT; antibody binding reactivity (% WT) [17]: 96.2 % WT; antibody binding reactivity (% WT) [18]: 87.5 % WT; antibody binding reactivity (% WT) [19]: 101 % WT; antibody binding reactivity (% WT) [20]: 110 % WT; antibody binding reactivity (% WT) [21]: 71.6 % WT; antibody binding reactivity (% WT) [22]: 147 % WT
B8	0.3	4.58e-05	155000	0.29	3.68e-05	129000	7.8	binds	
